Results published in patent US7691605.

Target: Lz-linker-DHFR 106-187 (yeast) (UniProt P03069)
Experiment: cell-based or functional assay

Work on “Lz-linker-DHFR 1-105 (from UniProt P03069 253-274)” yielded a cell survival in DHFR selection media lacking glycine, hypoxanthine and thymidine (-GHT) of under 90 % viability.
